We go through one molecule from publication PMC9945442.

In this data set the target is Argonaute 2 (AGO2) (human (Homo sapiens), UniProt Q9UKV8 1-859). In words: northern blot of purified loaded AGO2.
Chain of Argonaute 2 (AGO2) (Q9UKV8 whole entry): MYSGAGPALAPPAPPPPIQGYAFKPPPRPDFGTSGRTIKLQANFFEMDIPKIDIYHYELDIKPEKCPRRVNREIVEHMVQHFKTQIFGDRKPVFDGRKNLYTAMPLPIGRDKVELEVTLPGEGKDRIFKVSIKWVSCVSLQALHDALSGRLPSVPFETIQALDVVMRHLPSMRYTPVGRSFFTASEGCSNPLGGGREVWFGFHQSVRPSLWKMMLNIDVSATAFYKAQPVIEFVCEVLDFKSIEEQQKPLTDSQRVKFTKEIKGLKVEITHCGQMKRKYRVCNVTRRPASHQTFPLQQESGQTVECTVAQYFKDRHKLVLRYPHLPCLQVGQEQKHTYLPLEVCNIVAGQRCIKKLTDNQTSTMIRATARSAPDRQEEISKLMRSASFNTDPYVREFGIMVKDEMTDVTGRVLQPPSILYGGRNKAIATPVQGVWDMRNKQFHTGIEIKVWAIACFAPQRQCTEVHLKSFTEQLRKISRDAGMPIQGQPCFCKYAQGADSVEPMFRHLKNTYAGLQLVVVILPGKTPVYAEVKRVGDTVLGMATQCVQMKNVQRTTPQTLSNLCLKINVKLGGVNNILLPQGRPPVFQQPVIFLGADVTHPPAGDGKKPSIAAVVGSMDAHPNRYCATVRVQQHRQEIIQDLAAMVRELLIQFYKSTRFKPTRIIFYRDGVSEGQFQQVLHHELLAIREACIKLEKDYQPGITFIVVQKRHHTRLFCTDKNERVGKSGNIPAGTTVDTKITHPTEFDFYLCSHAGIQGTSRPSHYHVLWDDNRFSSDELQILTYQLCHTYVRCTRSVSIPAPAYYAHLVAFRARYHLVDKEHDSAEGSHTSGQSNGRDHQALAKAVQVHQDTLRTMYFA

Consider UGGCAGUGUCUUAGCUGGUUGU (ssRNA) [miR-34a], for which the binding result is listed as “binds”.
